Publication PMC9514091 (2022)

B1: host PD-1-Fc fusion protein (Fc fusion)
chain: LDAPSRPWSPLTFSPARLTVPEGANATFTCSFSSKPEHFVLNWYRMSPSNQTDKLAAFPEDRSQPGRDRRFHVTPLPGGRHFHMSIMAAQRNDSGVYFCGAIYLPPKTQINESRPAELT
B2: host PD-L1-Fc fusion protein (Fc fusion)
chain: FTITVPKDLYVVEYGSNVTLECRFPVDKQLNLLALVVYWEMEDKKIIQFVNGEEDLNVQHSSYNQRALLLKNQLPLGKAALQITDVKLQDAGIYCCLISYGGADYKRITLKVNASYRKINQTISVDPVTSEHELMCQAEGYPEAEVIWTSSDHRVLSGKTTITSSKREEKLFNVTSTLRINTTANEIFYCIFRRLGHEENSTAELV

How the values were obtained:
[1] = target: De2-Fc fusion protein (Tursiops truncatus gammaherpesvirus 1); test: SPR
[2] = target: B1; test: SPR

Binder | koff [1] [s⁻¹] | koff [2] [s⁻¹]
B1 | 0.000696 | –
B2 | – | 0.000488
